Residue numbers refer to the chain shown, from its start. Names may count otherwise. Blank lines part the entries; values can stand above or below the binder they belong to.
Legend:
[1] = biological target: nonsulfated human cationic trypsin purified from E. coli (human); experiment: discontinuous association rate assay (residual trypsin activity); 50 pM trypsin mixed with 500 pM SPINK1, 0.1 M Tris-HCl (pH 8.0), 150 mM NaCl, 1 mM CaCl2, 0.05% Tween 20, 23 °C; kon from the pseudo-first-order rate constant divided by the inhibitor concentration
[2] = biological target: native sulfated human cationic trypsin purified from pancreatic juice (human); experiment: as above
[3] = biological target: native sulfated human cationic trypsin purified from pancreatic juice (human); experiment: equilibrium binding assay (free trypsin activity on a fluorogenic substrate); fixed trypsin incubated with increasing SPINK1, 0.2 ml, 0.1 M Tris-HCl (pH 8.0), 150 mM NaCl, 1 mM CaCl2, 0.05% Tween 20, 15 h; free trypsin measured with Z-Gly-Pro-Arg-AMC; apparent KD, global fit of at least three experiments
[4] = biological target: nonsulfated human cationic trypsin purified from E. coli (human); experiment: dissociation rate assay (recovery of trypsin activity after dilution of the complex); complex of 11 nM SPINK1 and 10 nM trypsin formed for 1 h at 23 °C, diluted to 50-200 pM with 0.6 mM Z-Gly-Pro-Arg-AMC, 0.1 M Tris-HCl (pH 8.0), 150 mM NaCl, 1 mM CaCl2, 0.05% Tween 20, room temperature, followed for 1 h
[5] = biological target: native sulfated human cationic trypsin purified from pancreatic juice (human); experiment: as above
[6] = biological target: nonsulfated human cationic trypsin purified from E. coli (human); experiment: KD calculated from the rate constants (association and dissociation rate assays); KD(calc): equilibrium dissociation constant calculated from kon and koff of the activity-based rate assays
[7] = biological target: native sulfated human cationic trypsin purified from pancreatic juice (human); experiment: as above
[8] = biological target: sulfated human cationic trypsin purified from the conditioned medium of transfected HEK 293T cells (human); experiment: equilibrium binding assay (free trypsin activity on a fluorogenic substrate); fixed trypsin incubated with increasing SPINK1, 0.2 ml, 0.1 M Tris-HCl (pH 8.0), 150 mM NaCl, 1 mM CaCl2, 0.05% Tween 20, 15 h; free trypsin measured with Z-Gly-Pro-Arg-AMC; apparent KD, global fit of at least three experiments
[9] = biological target: nonsulfated human cationic trypsin purified from the conditioned medium of transfected HEK 293T cells (human); experiment: as above
[10] = biological target: nonsulfated human cationic trypsin purified from E. coli (human); experiment: as above
[11] = biological target: native sulfated human cationic trypsin purified from pancreatic juice (human); experiment: as above; remark: listed apart in the source
[12] = biological target: nonsulfated human cationic trypsin purified from E. coli (human); experiment: as above; remark: listed apart in the source
[13] = biological target: native sulfated human cationic trypsin purified from pancreatic juice (human); experiment: equilibrium binding assay (free trypsin activity on a fluorogenic substrate); as the equilibrium assay but K41N SPINK1 incubated with trypsin for 1 h; 0.1 M Tris-HCl (pH 8.0), 150 mM NaCl, 1 mM CaCl2, 0.05% Tween 20; apparent KD

kon [1]: 3e+06 M⁻¹ s⁻¹
kon [2]: 3.5e+06 M⁻¹ s⁻¹
Kd [3]: 0.0674 nM
koff [4]: 8.2e-06 s⁻¹
koff [5]: 5.48e-05 s⁻¹
Kd [6]: 0.0027 nM
Kd [7]: 0.0158 nM
Kd [8]: 0.0402 nM
Kd [9]: 0.0044 nM
Kd [10]: 0.0011 nM
Kd [11]: 0.0622 nM
B1: serine protease inhibitor Kazal type 1 (SPINK1), wildtype, C-terminal 10His tag (natural protein)
chain: DSLGREAKCYNELNGCTKIYDPVCGTDGNTYPNECVLCFENRKRQTSILIQKSGPC

Kd [11]: 0.2 nM
B2: SPINK1 variant I42M, C-terminal 10His tag (natural protein)
chain: B1 chain with I19M

Kd [11]: 0.0869 nM
B3: SPINK1 variant N37S, C-terminal 10His tag (natural protein)
chain: B1 chain with N14S

Kd [11]: 0.068 nM
B4: SPINK1 variant Q68R, C-terminal 10His tag (natural protein)
chain: B1 chain with Q45R

Kd [12]: 0.0203 nM
Kd [3]: 0.0622 nM
B5: SPINK1 mutant Y43A (natural protein)
chain: B1 chain with Y20A

Kd [11]: 0.101 nM
B6: SPINK1 variant P55S, C-terminal 10His tag (natural protein)
chain: B1 chain with P32S

Kd [11]: 0.0592 nM
B7: SPINK1 variant R65Q, C-terminal 10His tag (natural protein)
chain: B1 chain with R42Q

Kd [13]: 1290 nM
B8: SPINK1 variant K41N, C-terminal 10His tag (natural protein)
chain: B1 chain with K18N

Kd [12]: 0.104 nM
Kd [3]: 0.0271 nM
B9: SPINK1 mutant Y43R (natural protein)
chain: B1 chain with Y20R

kon [1]: 5.3e+06 M⁻¹ s⁻¹
kon [2]: 2.7e+06 M⁻¹ s⁻¹
koff [4]: 7e-06 s⁻¹
koff [5]: 4.5e-05 s⁻¹
Kd [6]: 0.0013 nM
Kd [7]: 0.0164 nM
Kd [8]: 0.0375 nM
Kd [9]: 0.0047 nM
Kd [10]: 0.0015 nM
Kd [11]: 0.0323 nM
B10: SPINK1 variant N34S, C-terminal 10His tag (natural protein)
chain: B1 chain with N11S

From PMC7949130
